Data published in US20110263454A1, “Methods of Identifying Functional Characteristics of Promoters, Transcription Modifying Proteins and Transcription Modulating Agents” (Salk Institute for Biological Studies, priority 2008, published 2011).

What was measured:
[1] = test system: hPPARg2 promoter; experiment: NHR-promoter luciferase screen, hPPARg2 promoter; format: cell-based, human; conditions: for Luc. act., normalized to lacZ / Normalized Luc. act., normalized to control: PPARG2 promoter, hormone receptor with or without its ligand; for Normalized Luc. act., normalized to control: relative to control; for Results of assays of transcription factor (+/- ligand) with hPPARg2: Table 6d, luciferase activity relative to control (control = 1.00)
Description: (§1) The use, feasibility, and reproducibility of the functional NHR-promoter screen in a 48-well format have been tested validated. Briefly, there were co-expressed 50 ng of each NHR/NHR homodimer or NHR/RXR heterodimer with 100 ng promoter/luciferase construct and 50 ng of LacZ (as a control for transfection efficiency) in CV-1 cells using Fugene HD (Roche) as a transfection reagent (alternatively or additionally, a CMV-YFP construct can be used as a transfection control). Each of the nuclear hormone receptors that were used in these experiments was cloned into a pcDNA3.1 vector and comprised a C-terminally linked V5H6 tag. Twenty-four hours after transfection, appropriate ligands were added, where applicable, (see Table 5 for various ligands and concentrations and after 48 hrs, samples were assayed for luciferase and LacZ activity. To measure for luciferase activity 15 ul of sample was added to 30 ul of luciferase buffer (20 mM tricine, 1.07 mM MgCarbonate, 2.67 mM MgSulfate, 0.1 mM Naz-EDTA, 5 mM DTT, 5 mM ATP, 0.15 mg/ml CoA, 0.5 mM Luciferin), mixed briefly, and run in a Perkin Elmer Victor 5 luminometer. Thus, the functional NHR-promoter screen was used to observe the transcriptional activity of 29 promoters from various physiological pathways including inflammation, lipid and sugar metabolism, cholesterol transport, xenobiotic metabolism, and circadian rhythm.
(§2) The promoters that facilitate transcription of the indicated gene products that were tested using the protocols described herein are listed in the first row of the table. The nuclear hormone receptors and, where applicable, ligands that were assayed for their transcriptional effects on the promoters are listed in the first column of the table. The data represent the luciferase activity of each sample normalized to both the lacZ activity of that sample and to a control, e.g., no NHR or ligand, as customary in the art. As described previously, these normalizations allow the transcriptional activity of each reporter cell to be compared to other samples.
(§3) Tables 7-40 show the transcriptional effects of the hormone receptors, and, where applicable, ligands (orphan receptors are screened without ligand), on each individual promoter. […] The control data of each table are shown in their last rows.

[2] = test system: hPPARg1 promoter; experiment: NHR-promoter luciferase screen, hPPARg1 promoter; format: cell-based, human; conditions: for Luc. act., normalized to lacZ / Normalized Luc. act., normalized to control: PPARG1 promoter, hormone receptor with or without its ligand; for Normalized Luc. act., normalized to control: relative to control; for Results of assays of transcription factor (+/- ligand) with hPPARg1: Table 6d, luciferase activity relative to control (control = 1.00)
Description: as §1, §2, §3

[3] = test system: mAdiponectin promoter; experiment: NHR-promoter luciferase screen, mAdiponectin promoter; format: cell-based, mouse; conditions: for Luc. act., normalized to lacZ / Normalized Luc. act., normalized to control: Adiponectin, HR component without or with its ligand; for mAdiponectin promoter reporter activity: transcription factor +/- ligand, control = 1.00
Description: as §1, §2, §3

[4] = test system: hG6PD promoter; experiment: NHR-promoter luciferase screen, hG6PD promoter; format: cell-based, human; conditions: for Luc. act., normalized to lacZ / Normalized Luc. act., normalized to control: G6PD promoter reporter, co-transfected HR, without or with its ligand; for Normalized Luc. act., normalized to control: relative to control; for luciferase activity normalized to lacZ activity and to a control, hG6PD: hG6PD promoter-luciferase, CV-1 cells, NHR +/- ligand, control = 1.00
Description: as §1, §2, §3

[5] = test system: mPgc1b promoter; experiment: NHR-promoter luciferase screen, mPgc1b promoter; format: cell-based, mouse; conditions: for Luc. act., normalized to lacZ / Normalized Luc. act., normalized to control: PGC1b promoter reporter, co-transfected HR, without or with its ligand; for Normalized Luc. act., normalized to control: relative to control; for luciferase activity normalized to lacZ activity and to a control, mPgc1b: mPgc1b promoter-luciferase, CV-1 cells, NHR +/- ligand, control = 1.00
Description: Briefly, there were co-expressed 50 ng of each NHR/NHR homodimer or NHR/RXR heterodimer with 100 ng promoter/luciferase construct and 50 ng of LacZ (as a control for transfection efficiency) in CV-1 cells using Fugene HD (Roche) as a transfection reagent (alternatively or additionally, a CMV-YFP construct can be used as a transfection control). Each of the nuclear hormone receptors that were used in these experiments was cloned into a pcDNA3.1 vector and comprised a C-terminally linked V5H6 tag.
as §2, §3

[6] = test system: hIRF7 promoter; experiment: NHR-promoter luciferase screen, hIRF7 promoter; format: cell-based, human; conditions: for Normalized Luc. act., normalized to control / Luc. act., normalized to lacZ: IRF7 promoter reporter; for Normalized Luc. act., normalized to control: HR without or with its ligand, relative to control; for Luc. act., normalized to lacZ: hormone receptor (HR) without or with its ligand; for hIRF7 promoter reporter activity: transcription factor +/- ligand, control = 1.00
Description: as §1, §2, §3

Row | Molecule | Luc. act., normalized to lacZ [1] | Normalized Luc. act., normalized to control [1] | Results of assays of transcription factor (+/- ligand) with hPPARg2 [1] | Luc. act., normalized to lacZ [2] | Normalized Luc. act., normalized to control [2] | Results of assays of transcription factor (+/- ligand) with hPPARg1 [2] | Luc. act., normalized to lacZ [3] | Normalized Luc. act., normalized to control [3] | mAdiponectin promoter reporter activity [3] | Luc. act., normalized to lacZ [4] | Normalized Luc. act., normalized to control [4] | luciferase activity normalized to lacZ activity and to a control, hG6PD [4] | Luc. act., normalized to lacZ [5] | Normalized Luc. act., normalized to control [5] | luciferase activity normalized to lacZ activity and to a control, mPgc1b [5] | Normalized Luc. act., normalized to control [6] | Luc. act., normalized to lacZ [6] | hIRF7 promoter reporter activity [6]
1 | RVRa: Rev-Erb α (NR1D1), cDNA driver (protein, UniProt P20393 1-614, looked up) Nuclear receptor subfamily 1 …: MTTLDSNNNTGGVITYIGSSGSSPSRTSPESLYSDNSNGSFQSLTQGCPTYFPPSPTGSLTQDPARSFGSIPPSLSDDGSPSSSSSSSSSSSSFYNGSPPGSLQVAMEDSSRVSPSKSTSNITKLNGMVLLCKVCGDVASGFHYGVHACEGCKGFFRRSIQQNIQYKRCLKNENCSIVRINRNRCQQCRFKKCLSVGMSRDAVRFGRIPKREKQRMLAEMQSAMNLANNQLSSQCPLETSPTQHPTPGPMGPSPPPAPVPSPLVGFSQFPQQLTPPRSPSPEPTVEDVISQVARAHREIFTYAHDKLGSSPGNFNANHASGSPPATTPHRWENQGCPPAPNDNNTLAAQRHNEALNGLRQAPSSYPPTWPPGPAHHSCHQSNSNGHRLCPTHVYAAPEGKAPANSPRQGNSKNVLLACPMNMYPHGRSGRTVQEIWEDFSMSFTPAVREVVEFAKHIPGFRDLSQHDQVTLLKAGTFEVLMVRFASLFNVKDQTVMFLSRTTYSLQELGAMGMGDLLSAMFDFSEKLNSLALTEEELGLFTAVVLVSADRSGMENSASVEQLQETLLRALRALVLKNRPLETSRFTKLLLKLPDLRTLNNMHSEKLLSFRVDAQ | 1.5 | 0.8 | 0.76 | 45.9 | 0.7 | 0.67 | 55.2 | 0.9 | 0.88 | 45.9 | 1.2 | 1.23 | 8.8 | 0.7 | 0.74 | 1.2 | 32.6 | 1.24
2 | RARa: Retinoic acid receptor α (NR1B1), nuclear hormone receptor cDNA driver (protein, UniProt P10276 1-462, looked up) Retinoic acid receptor alpha: MASNSSSCPTPGGGHLNGYPVPPYAFFFPPMLGGLSPPGALTTLQHQLPVSGYSTPSPATIETQSSSSEEIVPSPPSPPPLPRIYKPCFVCQDKSSGYHYGVSACEGCKGFFRRSIQKNMVYTCHRDKNCIINKVTRNRCQYCRLQKCFEVGMSKESVRNDRNKKKKEVPKPECSESYTLTPEVGELIEKVRKAHQETFPALCQLGKYTTNNSSEQRVSLDIDLWDKFSELSTKCIIKTVEFAKQLPGFTTLTIADQITLLKAACLDILILRICTRYTPEQDTMTFSDGLTLNRTQMHNAGFGPLTDLVFAFANQLLPLEMDDAETGLLSAICLICGDRQDLEQPDRVDMLQEPLLEALKVYVRKRRPSRPHMFPKMLMKITDLRSISAKGAERVITLKMEIPGSMPPLIQEMLENSEGLDTLSGQPGGGGRDGGGLAPPPGSCSPSLSPSSNRSSPATHSP | 3.5 | 1.7 | 1.73 | 86.6 | 1.3 | 1.26 | 78.6 | 1.3 | 1.25 | 57.1 | 1.5 | 1.53 | 12.69 | 1.1 | 1.07 | 1.5 | 40.6 | 1.54
3 | RVRb: Rev-Erb β (NR1D2, alternative name RVR), cDNA driver (protein, UniProt Q14995 1-579, looked up) Nuclear receptor subfamily 1 …: MEVNAGGVIAYISSSSSASSPASCHSEGSENSFQSSSSSVPSSPNSSNSDTNGNPKNGDLANIEGILKNDRIDCSMKTSKSSAPGMTKSHSGVTKFSGMVLLCKVCGDVASGFHYGVHACEGCKGFFRRSIQQNIQYKKCLKNENCSIMRMNRNRCQQCRFKKCLSVGMSRDAVRFGRIPKREKQRMLIEMQSAMKTMMNSQFSGHLQNDTLVEHHEQTALPAQEQLRPKPQLEQENIKSSSPPSSDFAKEEVIGMVTRAHKDTFMYNQEQQENSAESMQPQRGERIPKNMEQYNLNHDHCGNGLSSHFPCSESQQHLNGQFKGRNIMHYPNGHAICIANGHCMNFSNAYTQRVCDRVPIDGFSQNENKNSYLCNTGGRMHLVCPMSKSPYVDPHKSGHEIWEEFSMSFTPAVKEVVEFAKRIPGFRDLSQHDQVNLLKAGTFEVLMVRFASLFDAKERTVTFLSGKKYSVDDLHSMGAGDLLNSMFEFSEKLNALQLSDEEMSLFTAVVLVSADRSGIENVNSVEALQETLIRALRTLIMKNHPNEASIFTKLLLKLPDLRSLNNMHSEELLAFKVHP | 1.0 | 0.5 | 0.48 | 55.5 | 0.8 | 0.81 | 66.3 | 1.1 | 1.06 | 55.5 | 1.5 | 1.48 | 9.3 | 0.8 | 0.78 | 1.9 | 50.4 | 1.91
4 | RORg: RAR-related Orphan Receptor γ (NR1F3), cDNA driver (protein, UniProt P51449 1-518, looked up) Nuclear receptor ROR-gamma: MDRAPQRQHRASRELLAAKKTHTSQIEVIPCKICGDKSSGIHYGVITCEGCKGFFRRSQRCNAAYSCTRQQNCPIDRTSRNRCQHCRLQKCLALGMSRDAVKFGRMSKKQRDSLHAEVQKQLQQRQQQQQEPVVKTPPAGAQGADTLTYTLGLPDGQLPLGSSPDLPEASACPPGLLKASGSGPSYSNNLAKAGLNGASCHLEYSPERGKAEGRESFYSTGSQLTPDRCGLRFEEHRHPGLGELGQGPDSYGSPSFRSTPEAPYASLTEIEHLVQSVCKSYRETCQLRLEDLLRQRSNIFSREEVTGYQRKSMWEMWERCAHHLTEAIQYVVEFAKRLSGFMELCQNDQIVLLKAGAMEVVLVRMCRAYNADNRTVFFEGKYGGMELFRALGCSELISSIFDFSHSLSALHFSEDEIALYTALVLINAHRPGLQEKRKVEQLQYNLELAFHHHLCKTHRQSILAKLPPKGKLRSLCSQHVERLQIFQHLHPIVVQAAFPPLYKELFSTETESPVGLSK | 19.2 | 9.6 | 9.59 | 81.5 | 1.2 | 1.18 | 133.3 | 2.1 | 2.12 | 81.5 | 2.2 | 2.18 | 15.9 | 1.3 | 1.34 | 1.7 | 44.4 | 1.69
